Patent US20210032299A1 (Eli Lilly, published 2021)
Starred links: 1 amine or outer side, 2 acyl side, 3 side chain; linkers in the order of their positions; H or OH if unused. Non-standard residues stand in square brackets, D forms with d. Groups on a side chain read outwards from the residue. No end group written: not given here. *: point of attachment. C20 diacid = O=C(O)CCCCCCCCCCCCCCCCCCC(=O)*; C18 diacid = O=C(O)CCCCCCCCCCCCCCCCC(=O)*; αMePhe(2-F) = C[C@](N)(Cc1ccccc1F)C(=O)O; γGlu = O=C(O)[C@H](CCC(=O)[*:2])N[*:1]; 4Pal = N[C@@H](Cc1ccncc1)C(=O)O; αMeL = CC(C)C[C@](C)(N)C(=O)O; Orn = NCCC[C@H](N)C(=O)O; AEEA = NCCOCCOCC(=O)O; Aib = CC(C)(N)C(=O)O

B1: Example 93 (peptide)
peptide: Y[dA]EGTFISDYSILLDKIAQ[Aib]DFVNWK([AEEA-AEEA-γGlu-C18 diacid])LAQGPSSGAPPPS-NH2
modifications: N-terminus assumed
SMILES: CC[C@H](C)[C@H](NC(=O)[C@H](CCCCN)NC(=O)[C@H](CC(=O)O)NC(=O)[C@H](CC(C)C)NC(=O)[C@H](CC(C)C)NC(=O)[C@@H](NC(=O)[C@H](CO)NC(=O)[C@H](Cc1ccc(O)cc1)NC(=O)[C@H](CC(=O)O)NC(=O)[C@H](CO)NC(=O)[C@@H](NC(=O)[C@H](Cc1ccccc1)NC(=O)[C@@H](NC(=O)CNC(=O)[C@H](CCC(=O)O)NC(=O)[C@@H](C)NC(=O)[C@@H](N)Cc1ccc(O)cc1)[C@@H](C)O)[C@@H](C)CC)[C@@H](C)CC)C(=O)N[C@@H](C)C(=O)N[C@@H](CCC(N)=O)C(=O)NC(C)(C)C(=O)N[C@@H](CC(=O)O)C(=O)N[C@@H](Cc1ccccc1)C(=O)N[C@H](C(=O)N[C@@H](CC(N)=O)C(=O)N[C@@H](Cc1c[nH]c2ccccc12)C(=O)N[C@@H](CCCCNC(=O)COCCOCCNC(=O)COCCOCCNC(=O)CC[C@H](NC(=O)CCCCCCCCCCCCCCCCC(=O)O)C(=O)O)C(=O)N[C@@H](CC(C)C)C(=O)N[C@@H](C)C(=O)N[C@@H](CCC(N)=O)C(=O)NCC(=O)N1CCC[C@H]1C(=O)N[C@@H](CO)C(=O)N[C@@H](CO)C(=O)NCC(=O)N[C@@H](C)C(=O)N1CCC[C@H]1C(=O)N1CCC[C@H]1C(=O)N1CCC[C@H]1C(=O)N[C@@H](CO)C(N)=O)C(C)C
B2: Example 122 (peptide)
peptide: Y[Aib]EGTFISDYSI[αMeL]LD[Orn]IHQ[Aib]EFVE[4Pal]K([AEEA-AEEA-γGlu-C20 diacid])LEAGPSSGAPPPS-NH2
modifications: N-terminus assumed
SMILES: CC[C@H](C)[C@H](NC(=O)[C@H](CCCN)NC(=O)[C@H](CC(=O)O)NC(=O)[C@H](CC(C)C)NC(=O)[C@](C)(CC(C)C)NC(=O)[C@@H](NC(=O)[C@H](CO)NC(=O)[C@H](Cc1ccc(O)cc1)NC(=O)[C@H](CC(=O)O)NC(=O)[C@H](CO)NC(=O)[C@@H](NC(=O)[C@H](Cc1ccccc1)NC(=O)[C@@H](NC(=O)CNC(=O)[C@H](CCC(=O)O)NC(=O)C(C)(C)NC(=O)[C@@H](N)Cc1ccc(O)cc1)[C@@H](C)O)[C@@H](C)CC)[C@@H](C)CC)C(=O)N[C@@H](Cc1c[nH]cn1)C(=O)N[C@@H](CCC(N)=O)C(=O)NC(C)(C)C(=O)N[C@@H](CCC(=O)O)C(=O)N[C@@H](Cc1ccccc1)C(=O)N[C@H](C(=O)N[C@@H](CCC(=O)O)C(=O)N[C@@H](Cc1ccncc1)C(=O)N[C@@H](CCCCNC(=O)COCCOCCNC(=O)COCCOCCNC(=O)CC[C@H](NC(=O)CCCCCCCCCCCCCCCCCCC(=O)O)C(=O)O)C(=O)N[C@@H](CC(C)C)C(=O)N[C@@H](CCC(=O)O)C(=O)N[C@@H](C)C(=O)NCC(=O)N1CCC[C@H]1C(=O)N[C@@H](CO)C(=O)N[C@@H](CO)C(=O)NCC(=O)N[C@@H](C)C(=O)N1CCC[C@H]1C(=O)N1CCC[C@H]1C(=O)N1CCC[C@H]1C(=O)N[C@@H](CO)C(N)=O)C(C)C
B3: Example 121 (peptide)
peptide: Y[Aib]EGT[αMePhe(2-F)]ISDYSILLDKIHQ[Aib]DFVE[4Pal]K([AEEA-AEEA-γGlu-C20 diacid])LEQGPSSGAPPPS-NH2
modifications: N-terminus assumed
SMILES: CC[C@H](C)[C@H](NC(=O)[C@H](CO)NC(=O)[C@H](Cc1ccc(O)cc1)NC(=O)[C@H](CC(=O)O)NC(=O)[C@H](CO)NC(=O)[C@@H](NC(=O)[C@](C)(Cc1ccccc1F)NC(=O)[C@@H](NC(=O)CNC(=O)[C@H](CCC(=O)O)NC(=O)C(C)(C)NC(=O)[C@@H](N)Cc1ccc(O)cc1)[C@@H](C)O)[C@@H](C)CC)C(=O)N[C@@H](CC(C)C)C(=O)N[C@@H](CC(C)C)C(=O)N[C@@H](CC(=O)O)C(=O)N[C@@H](CCCCN)C(=O)N[C@H](C(=O)N[C@@H](Cc1c[nH]cn1)C(=O)N[C@@H](CCC(N)=O)C(=O)NC(C)(C)C(=O)N[C@@H](CC(=O)O)C(=O)N[C@@H](Cc1ccccc1)C(=O)N[C@H](C(=O)N[C@@H](CCC(=O)O)C(=O)N[C@@H](Cc1ccncc1)C(=O)N[C@@H](CCCCNC(=O)COCCOCCNC(=O)COCCOCCNC(=O)CC[C@H](NC(=O)CCCCCCCCCCCCCCCCCCC(=O)O)C(=O)O)C(=O)N[C@@H](CC(C)C)C(=O)N[C@@H](CCC(=O)O)C(=O)N[C@@H](CCC(N)=O)C(=O)NCC(=O)N1CCC[C@H]1C(=O)N[C@@H](CO)C(=O)N[C@@H](CO)C(=O)NCC(=O)N[C@@H](C)C(=O)N1CCC[C@H]1C(=O)N1CCC[C@H]1C(=O)N1CCC[C@H]1C(=O)N[C@@H](CO)C(N)=O)C(C)C)[C@@H](C)CC
B4: Example 13 (peptide)
peptide: Y[dA]EGTFISDYSILLDKK([AEEA-AEEA-γGlu-C20 diacid])HQQEFVNWLLAQGPSSGAPPPS-NH2
modifications: N-terminus assumed
SMILES: CC[C@H](C)[C@H](NC(=O)[C@H](CO)NC(=O)[C@H](Cc1ccc(O)cc1)NC(=O)[C@H](CC(=O)O)NC(=O)[C@H](CO)NC(=O)[C@@H](NC(=O)[C@H](Cc1ccccc1)NC(=O)[C@@H](NC(=O)CNC(=O)[C@H](CCC(=O)O)NC(=O)[C@@H](C)NC(=O)[C@@H](N)Cc1ccc(O)cc1)[C@@H](C)O)[C@@H](C)CC)C(=O)N[C@@H](CC(C)C)C(=O)N[C@@H](CC(C)C)C(=O)N[C@@H](CC(=O)O)C(=O)N[C@@H](CCCCN)C(=O)N[C@@H](CCCCNC(=O)COCCOCCNC(=O)COCCOCCNC(=O)CC[C@H](NC(=O)CCCCCCCCCCCCCCCCCCC(=O)O)C(=O)O)C(=O)N[C@@H](Cc1c[nH]cn1)C(=O)N[C@@H](CCC(N)=O)C(=O)N[C@@H](CCC(N)=O)C(=O)N[C@@H](CCC(=O)O)C(=O)N[C@@H](Cc1ccccc1)C(=O)N[C@H](C(=O)N[C@@H](CC(N)=O)C(=O)N[C@@H](Cc1c[nH]c2ccccc12)C(=O)N[C@@H](CC(C)C)C(=O)N[C@@H](CC(C)C)C(=O)N[C@@H](C)C(=O)N[C@@H](CCC(N)=O)C(=O)NCC(=O)N1CCC[C@H]1C(=O)N[C@@H](CO)C(=O)N[C@@H](CO)C(=O)NCC(=O)N[C@@H](C)C(=O)N1CCC[C@H]1C(=O)N1CCC[C@H]1C(=O)N1CCC[C@H]1C(=O)N[C@@H](CO)C(N)=O)C(C)C
B5: Example 93 (peptide)
peptide: Y[dA]EGTFISDYSILLDKIAQ[Aib]DFVNWK([AEEA-AEEA-γGlu-C18 diacid])LAQGPSSGAPPPS-NH2
modifications: N-terminus assumed
SMILES: CC[C@H](C)[C@H](NC(=O)[C@H](CCCCN)NC(=O)[C@H](CC(=O)O)NC(=O)[C@H](CC(C)C)NC(=O)[C@H](CC(C)C)NC(=O)[C@@H](NC(=O)[C@H](CO)NC(=O)[C@H](Cc1ccc(O)cc1)NC(=O)[C@H](CC(=O)O)NC(=O)[C@H](CO)NC(=O)[C@@H](NC(=O)[C@H](Cc1ccccc1)NC(=O)[C@@H](NC(=O)CNC(=O)[C@H](CCC(=O)O)NC(=O)[C@@H](C)NC(=O)[C@@H](N)Cc1ccc(O)cc1)[C@@H](C)O)[C@@H](C)CC)[C@@H](C)CC)C(=O)N[C@@H](C)C(=O)N[C@@H](CCC(N)=O)C(=O)NC(C)(C)C(=O)N[C@@H](CC(=O)O)C(=O)N[C@@H](Cc1ccccc1)C(=O)N[C@H](C(=O)N[C@@H](CC(N)=O)C(=O)N[C@@H](Cc1c[nH]c2ccccc12)C(=O)N[C@@H](CCCCNC(=O)COCCOCCNC(=O)COCCOCCNC(=O)CC[C@H](NC(=O)CCCCCCCCCCCCCCCCC(=O)O)C(=O)O)C(=O)N[C@@H](CC(C)C)C(=O)N[C@@H](C)C(=O)N[C@@H](CCC(N)=O)C(=O)NCC(=O)N1CCC[C@H]1C(=O)N[C@@H](CO)C(=O)N[C@@H](CO)C(=O)NCC(=O)N[C@@H](C)C(=O)N1CCC[C@H]1C(=O)N1CCC[C@H]1C(=O)N1CCC[C@H]1C(=O)N[C@@H](CO)C(N)=O)C(C)C

Assays:
[1] = target: T1, human glucose-dependent insulinotropic polypeptide (GIP) receptor (human, UniProt P48546 22-466); experiment: SPA, displacement of [125I]-GIP from hGIPR membranes, 0.1% bacitracin
T1 construct: whole, on cells; Assayed as crude membranes of stably transfected CHO cells; also called hGIPR; human GIP receptor
T1 sequence (looked up): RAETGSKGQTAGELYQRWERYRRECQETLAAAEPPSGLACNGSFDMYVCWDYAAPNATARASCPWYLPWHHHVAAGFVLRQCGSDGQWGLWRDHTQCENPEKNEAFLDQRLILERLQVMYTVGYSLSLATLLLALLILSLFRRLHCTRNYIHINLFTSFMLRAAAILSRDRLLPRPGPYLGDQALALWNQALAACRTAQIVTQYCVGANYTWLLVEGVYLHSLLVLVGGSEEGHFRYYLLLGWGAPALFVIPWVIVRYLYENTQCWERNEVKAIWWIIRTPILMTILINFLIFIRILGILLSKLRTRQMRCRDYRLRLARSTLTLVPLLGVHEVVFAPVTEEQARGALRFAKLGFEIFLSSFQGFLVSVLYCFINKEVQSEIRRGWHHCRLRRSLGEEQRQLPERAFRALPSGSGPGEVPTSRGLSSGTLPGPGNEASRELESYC
Protocol: The binding buffer contains 25 mM HEPES, pH 7.4, 2.5 mM CaCl₂, 1 mM MgCl₂, 0.1% (w/v) bacitracin, 0.003% (w/v) TWEEN®-20, and Roche Complete™ Protease Inhibitors without EDTA. […] Plates are sealed and mixed on a plate shaker (setting 6) for 1 minute and read with a PerkinElmer Trilux MicroBeta® scintillation counter after 2.5 to 12 hours of incubation/settling time at room temperature.
Data are analyzed using four-parameter (curve maximum, curve minimum, […], Hill slope) nonlinear regression routines (Genedata Screener, version 12.0.4, Genedata AG, Basal, Switzerland). […] Values for Kᵢ are reported as the geometric mean, with error expressed as the standard error of the mean (SEM) and n is equal to the number of independent replicates (determined in assays performed on different days). Geometric Means are calculated as follows: […]

human GLP-1 receptor = human GLP-1 receptor (human, UniProt P43220 24-463); experiment: cell-based or functional assay
human glucagon receptor = human glucagon receptor (human, UniProt P47871 26-477); experiment: cell-based or functional assay
[2] = target: T2, human glucose-dependent insulinotropic peptide receptor (human, UniProt P48546 22-466); experiment: cell-based or functional assay
T2 sequence (looked up): T1 sequence (looked up)

Sequence of human glucagon receptor (P47871 26-477): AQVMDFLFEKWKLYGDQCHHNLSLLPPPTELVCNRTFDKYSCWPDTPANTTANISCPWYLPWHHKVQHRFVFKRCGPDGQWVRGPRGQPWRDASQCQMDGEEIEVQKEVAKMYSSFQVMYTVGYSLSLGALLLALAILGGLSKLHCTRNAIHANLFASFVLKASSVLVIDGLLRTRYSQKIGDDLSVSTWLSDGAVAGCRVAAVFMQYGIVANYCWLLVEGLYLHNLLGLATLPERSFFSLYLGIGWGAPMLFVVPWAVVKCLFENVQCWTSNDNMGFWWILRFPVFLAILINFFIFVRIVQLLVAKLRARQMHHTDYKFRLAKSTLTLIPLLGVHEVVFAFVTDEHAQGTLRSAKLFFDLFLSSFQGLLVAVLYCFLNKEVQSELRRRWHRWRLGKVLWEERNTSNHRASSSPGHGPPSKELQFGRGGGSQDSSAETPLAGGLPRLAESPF

Binder | Ki [1] [nM] | hGLP1R cAMP Rel EC50 (human GLP-1 receptor) [nM] | hGcgR cAMP Rel EC50 (human glucagon receptor) [nM] | hGIPR cAMP Rel EC50 [2] [nM]
B1 | 0.043 | – | – | –
B2 | – | > 5000 | > 5000 | 0.01
B3 | – | > 5000 | > 5000 | 0.0196
B4 | 0.237 | – | – | –
B5 | – | 884 | > 5000 | 0.00482
